Experimental data from US20230174629A1.

Tests used:
[1] = biological target: MPER-GlpF fusion protein (E. coli (GlpF); HIV-1 (gp41 MPER epitope)); assay: size exclusion chromatography, complex against GlpF alone
[2] = biological target: MPER-AdiC fusion protein (Salmonella enterica (AdiC); HIV-1 (gp41 MPER epitope)) (UniProt P60065); assay: gel filtration chromatography, complex against AdiC alone
[3] = biological target: MPER-AdiC fusion protein (Salmonella enterica (AdiC); HIV-1 (gp41 MPER epitope)) (UniProt P60065)
[4] = biological target: MPER-Fluc-Bpe fusion protein (Bordetella pertussis (Fluc-Bpe); HIV-1 (gp41 MPER epitope)); assay: gel filtration chromatography, complex against fusion protein alone
[5] = biological target: MPER-Fluc-Bpe fusion protein (Bordetella pertussis (Fluc-Bpe); HIV-1 (gp41 MPER epitope)); assay: negative stain EM 2-D class averages, 1 dimer:0.3 Fab molar ratio

Row | Substance | elution volume shift [1] [mL] | elution volume shift [2] [mL] | stoichiometry (Fab per AdiC dimer) (Fab per AdiC dimer) [3] | shift in the retention time [4] [mL] | percent of total particles in the doubly-occupied class [5] [%]
1 | 10E8v4 Fab fragment | 1 | 0.5 | 1 | 2 | –
2 | VRC42 Fab fragment | – | – | – | – | 2.5
